Source: PMC5625035, “The Rev1 interacting region (RIR) motif in the scaffold protein XRCC1 mediates a low-affinity interaction with polynucleotide kinase/phosphatase (PNKP) during DNA single-strand break repair” (The Journal of Biological Chemistry, 2017)

B1: acrylodan-labeled PNKP (PNKP^WFX402-AC) (enzyme)
chain: not shown
modifications: acrylodan (6-acryloyl-2-dimethylaminonaphthalene, AC) label, site not stated

Tests used:
[1] = target: B1; assay: other fluorescence titration; quenching of acrylodan fluorescence of PNKP-AC (excitation 380 nm, emission 485-490 nm) by added XRCC1 protein; 25 °C; PNKP-AC 20 nM with full-length XRCC1-His, 80 nM with His-XRCC1^161–406 and in the emission scans with His-XRCC1^FFF; nonlinear regression, unimodal binding; conditions: both partners purified
[2] = target: T1, full-length XRCC1-His (recombinant, from E. coli) (human, UniProt P18887 1-633); assay: as above; conditions: both partners purified
T1 construct: XRCC1, human, full length, not phosphorylated (made in E. coli); also called wild-type XRCC1; X-ray repair cross-complementing 1; source: E. coli (pET16b-XH), purified
T1 sequence (P18887 whole entry): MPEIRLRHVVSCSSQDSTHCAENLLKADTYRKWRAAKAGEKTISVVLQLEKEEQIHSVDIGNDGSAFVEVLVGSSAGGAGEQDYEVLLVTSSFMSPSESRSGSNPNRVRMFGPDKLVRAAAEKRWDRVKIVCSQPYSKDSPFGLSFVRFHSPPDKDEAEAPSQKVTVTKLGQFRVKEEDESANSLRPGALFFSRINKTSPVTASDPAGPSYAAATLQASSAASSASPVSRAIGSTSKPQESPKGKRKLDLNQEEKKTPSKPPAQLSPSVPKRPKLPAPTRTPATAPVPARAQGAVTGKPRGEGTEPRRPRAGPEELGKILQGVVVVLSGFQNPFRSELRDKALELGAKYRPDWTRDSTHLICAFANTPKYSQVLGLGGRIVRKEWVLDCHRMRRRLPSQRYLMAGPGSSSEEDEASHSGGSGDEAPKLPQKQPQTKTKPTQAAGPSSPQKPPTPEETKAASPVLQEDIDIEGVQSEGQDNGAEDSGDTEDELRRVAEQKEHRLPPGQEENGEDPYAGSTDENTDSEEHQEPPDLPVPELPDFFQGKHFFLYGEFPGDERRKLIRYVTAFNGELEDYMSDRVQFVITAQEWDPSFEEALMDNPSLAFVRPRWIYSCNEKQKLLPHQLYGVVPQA

Binder | Kd [1] [nM] | Kd [2] [nM]
His-XRCC1^161–406 (domain or fragment) PSQKVTVTKLGQFRVKEEDESANSLRPGALFFSRINKTSPVTASDPAGPSYAAATLQASSAASSASPVSRAIGSTSKPQESPKGKRKLDLNQEEKKTPSKPPAQLSPSVPKRPKLPAPTRTPATAPVPARAQGAVTGKPRGEGTEPRRPRAGPEELGKILQGVVVVLSGFQNPFRSELRDKALELGAKYRPDWTRDSTHLICAFANTPKYSQVLGLGGRIVRKEWVLDCHRMRRRLPSQRYLMAGP | ~95 | 
B1 |  | ~30
